How the values were obtained:
Experiment in all cases: cell-based or functional assay
[1] = molecular target: hemagglutinin (HA) of influenza virus H5N1 A/Vietnam/1194/04 (influenza A virus)
[2] = molecular target: hemagglutinin (HA) of influenza virus H3N2 A/Brisbane/10/07 (influenza A virus)
[3] = molecular target: hemagglutinin (HA) of influenza virus H7N3 A/NIBRG/60 (A/mallard/Netherlands/12/00) (influenza A virus)
[4] = molecular target: hemagglutinin (HA) of influenza virus H3N2 A/Wisconsin/67/05 (influenza A virus)
[5] = molecular target: hemagglutinin (HA) of influenza virus H1N1 A/New Caledonia/20/99 (influenza A virus)
[6] = molecular target: hemagglutinin (HA) of influenza virus H1N1 A/Puerto Rico/8/34-MA (influenza A virus)
[7] = molecular target: hemagglutinin (HA) of influenza virus B/Florida/04/06 (Yamagata) (influenza B virus)
[8] = molecular target: hemagglutinin (HA) of influenza virus B/Lee/40 (Old) (influenza B virus) (UniProt P03460)
hemagglutinin (HA) of influenza virus B/Lee/40 (Old) (influenza B virus), sequence (P03460 16-584 limits assumed): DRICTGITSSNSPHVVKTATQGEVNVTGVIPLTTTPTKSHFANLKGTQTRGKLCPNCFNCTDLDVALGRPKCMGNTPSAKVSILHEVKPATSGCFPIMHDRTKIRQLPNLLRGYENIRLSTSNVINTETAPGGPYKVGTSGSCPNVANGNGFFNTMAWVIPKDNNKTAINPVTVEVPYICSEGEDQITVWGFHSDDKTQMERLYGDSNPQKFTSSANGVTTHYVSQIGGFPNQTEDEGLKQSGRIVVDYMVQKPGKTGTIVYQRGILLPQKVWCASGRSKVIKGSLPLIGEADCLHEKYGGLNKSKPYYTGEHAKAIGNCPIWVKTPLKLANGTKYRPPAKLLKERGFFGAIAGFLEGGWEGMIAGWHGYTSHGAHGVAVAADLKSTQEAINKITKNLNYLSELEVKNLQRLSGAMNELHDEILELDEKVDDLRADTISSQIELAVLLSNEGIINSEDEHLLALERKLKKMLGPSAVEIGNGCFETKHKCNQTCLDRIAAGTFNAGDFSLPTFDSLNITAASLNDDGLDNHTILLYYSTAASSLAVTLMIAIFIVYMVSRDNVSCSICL

Row | Binder | average neutralization titer [1] [nM] | average neutralization titer [2] [nM] | average neutralization titer [3] [nM] | average neutralization titer [4] [nM] | average neutralization titer [5] [nM] | other results
1 | MD2308 (bispecific antibody) EVQLVESGGGLVQAGDSLRISCAASGRTLSIYSMGWFRQAPGKEREFVATIGWNSGRTFYPDSLKGRFTISRDNARNTLYLQMNNLRPEDTAVYYCAAAKGPLRLSSQADYWGQGTQVTVSSGGGGSGGGGSEVQLVESGGGLVQPGGSLRLSCAATGFTLENKAIGWFRQTPGSEREGVLCISKSGSWTYYTDSMRGRFTISRDNAENTVYLQMDSLKPEDTAVYYCATTTAGGGLCWDGTTFSRLASSWGQGTQVTVSSGGGGSGGGGSEVQLVESGGGLVQAGDSLRLSCAASGPTFGMSAMGWFRQAPGKEREFVAAISGLGNPNYSDDVKGRFTISRENGRNTVYLQMNSLKPEDTAVYYCAQRKVYHVQGGDRPQAYDYWGQGTQVTVSS | 21.6 | 15.3 | 12.8 |  |  | 
2 | MD2305 (bispecific antibody) EVQLVESGGGLVQPGGSLRLSCAVSISIFDIYAMDWYRQAPGKQRDLVATSFRDGSTNYADSVKGRFTISRDNAKNTLYLQMNSLKPEDTAVYLCHVSLYRDPLGVAGGMGVYWGKGALVTVSSGGGGSGGGGSEVQLVESGGGLVQPGGSLRLSCAATGFTLENKAIGWFRQTPGSEREGVLCISKSGSWTYYTDSMRGRFTISRDNAENTVYLQMDSLKPEDTAVYYCATTTAGGGLCWDGTTFSRLASSWGQGTQVTVSSGGGGSGGGGSEVQLVESGGGLVQPGGSLRLSCAVSISIFDIYAMDWYRQAPGKQRDLVATSFRDGSTNYADSVKGRFTISRDNAKNTLYLQMNSLKPEDTAVYLCHVSLYRDPLGVAGGMGVYWGKGALVTVSS |  |  |  | 21.7 | 4.3 | 
3 | MD2314 (bispecific antibody) EVQLVESGGGLVQAGDSLRLSCAASGPTFGMSAMGWFRQAPGKEREFVAAISGLGNPNYSDDVKGRFTISRENGRNTVYLQMNSLKPEDTAVYYCAQRKVYHVQGGDRPQAYDYWGQGTQVTVSSGGGGSGGGGSEVQLVESGGGLVQAGDSLRLSCAASGPTFGMSAMGWFRQAPGKEREFVAAISGLGNPNYSDDVKGRFTISRENGRNTVYLQMNSLKPEDTAVYYCAQRKVYHVQGGDRPQAYDYWGQGTQVTVSSGGGGSGGGGSEVQLVESGGGLVQPGGSLRLSCAATGFTLENKAIGWFRQTPGSEREGVLCISKSGSWTYYTDSMRGRFTISRDNAENTVYLQMDSLKPEDTAVYYCATTTAGGGLCWDGTTFSRLASSWGQGTQVTVSS | 6.5 | > 1000 | > 1000 |  |  | 
4 | MD2311 (bispecific antibody) EVQLVESGGGLVQAGDSLRLSCAASGPTFGMSAMGWFRQAPGKEREFVAAISGLGNPNYSDDVKGRFTISRENGRNTVYLQMNSLKPEDTAVYYCAQRKVYHVQGGDRPQAYDYWGQGTQVTVSSGGGGSGGGGSEVQLVESGGGLVQPGGSLRLSCAATGFTLENKAIGWFRQTPGSEREGVLCISKSGSWTYYTDSMRGRFTISRDNAENTVYLQMDSLKPEDTAVYYCATTTAGGGLCWDGTTFSRLASSWGQGTQVTVSSGGGGSGGGGSEVQLVESGGGLVQAGDSLRISCAASGRTLSIYSMGWFRQAPGKEREFVATIGWNSGRTFYPDSLKGRFTISRDNARNTLYLQMNNLRPEDTAVYYCAAAKGPLRLSSQADYWGQGTQVTVSS | 12.8 | 21.6 | 15.3 |  |  | 
5 | SD1036 + SD1038 (protein) VHH 1: EVQLVESGGGLVQAGGSLKLSCAASGRTYAMGWFRQAPGKEREFVAHINALGTRTYYSDSVKGRFTISRDNAKNTEYLEMNNLKPEDTAVYYCTAQGQWRAAPVAVAAEYEFWGQGTQVTVSS VHH 2: EVQLVESGGGLVQPGGSLRLSCAVSISIFDIYAMDWYRQAPGKQRDLVATSFRDGSTNYADSVKGRFTISRDNAKNTLYLQMNSLKPEDTAVYLCHVSLYRDPLGVAGGMGVYWGKGALVTVSS |  |  |  |  |  | neutralization titer [4]: < 1000 nM; neutralization titer [6]: 6.8 nM; neutralization titer [1]: 19.3 nM
6 | MD2304 (bispecific antibody) EVQLVESGGGLVQPGGSLRLSCAATGFTLENKAIGWFRQTPGSEREGVLCISKSGSWTYYTDSMRGRFTISRDNAENTVYLQMDSLKPEDTAVYYCATTTAGGGLCWDGTTFSRLASSWGQGTQVTVSSGGGGSGGGGSEVQLVESGGGLVQPGGSLRLSCAVSISIFDIYAMDWYRQAPGKQRDLVATSFRDGSTNYADSVKGRFTISRDNAKNTLYLQMNSLKPEDTAVYLCHVSLYRDPLGVAGGMGVYWGKGALVTVSSGGGGSGGGGSEVQLVESGGGLVQPGGSLRLSCAVSISIFDIYAMDWYRQAPGKQRDLVATSFRDGSTNYADSVKGRFTISRDNAKNTLYLQMNSLKPEDTAVYLCHVSLYRDPLGVAGGMGVYWGKGALVTVSS |  |  |  | 18.2 | 20.6 | 
7 | MD2302 (bispecific antibody) EVQLVESGGGLVQPGGSLRLSCAVSISIFDIYAMDWYRQAPGKQRDLVATSFRDGSTNYADSVKGRFTISRDNAKNTLYLQMNSLKPEDTAVYLCHVSLYRDPLGVAGGMGVYWGKGALVTVSSGGGGSGGGGSEVQLVESGGGLVQPGGSLRLSCAATGFTLENKAIGWFRQTPGSEREGVLCISKSGSWTYYTDSMRGRFTISRDNAENTVYLQMDSLKPEDTAVYYCATTTAGGGLCWDGTTFSRLASSWGQGTQVTVSSGGGGSGGGGSEVQLVESGGGLVQAGGSLKLSCAASGRTYAMGWFRQAPGKEREFVAHINALGTRTYYSDSVKGRFTISRDNAKNTEYLEMNNLKPEDTAVYYCTAQGQWRAAPVAVAAEYEFWGQGTQVTVSS |  |  |  | 34.7 | 14.7 | average neutralization titer [7]: 412 nM
8 | MD1223 (bispecific antibody) EVQLVESGGGLVQPGGSLKLSCAASGFTFSTSWMYWLRQAPGKGLEWVSVINTDGGTYYADSVKDRFTISRDNAKDTLYLQMSSLKSEDTAVYYCAKDWGGPEPTRGQGTQVTVSSAAAGGGGSGGGGSGGGGSGGGGSGGGGSGGGGSGGGGSEVQLVESGGGLVQPGGSLRLSCAATGFTLENKAIGWFRQTPGSEREGVLCISKSGSWTYYTDSMRGRFTISRDNAENTVYLQMDSLKPEDTAVYYCATTTAGGGLCWDGTTFSRLASSWGQGTQVTVSS |  |  |  |  |  | neutralization titer [7]: 2.3 nM; neutralization titer [8]: 18 nM
9 | MD2310 (bispecific antibody) EVQLVESGGGLVQPGGSLRLSCAATGFTLENKAIGWFRQTPGSEREGVLCISKSGSWTYYTDSMRGRFTISRDNAENTVYLQMDSLKPEDTAVYYCATTTAGGGLCWDGTTFSRLASSWGQGTQVTVSSGGGGSGGGGSEVQLVESGGGLVQAGDSLRLSCAASGPTFGMSAMGWFRQAPGKEREFVAAISGLGNPNYSDDVKGRFTISRENGRNTVYLQMNSLKPEDTAVYYCAQRKVYHVQGGDRPQAYDYWGQGTQVTVSSGGGGSGGGGSEVQLVESGGGLVQAGDSLRISCAASGRTLSIYSMGWFRQAPGKEREFVATIGWNSGRTFYPDSLKGRFTISRDNARNTLYLQMNNLRPEDTAVYYCAAAKGPLRLSSQADYWGQGTQVTVSS | 21.6 | 25.5 | 30.4 |  |  | 
10 | MD2309 (bispecific antibody) EVQLVESGGGLVQAGDSLRISCAASGRTLSIYSMGWFRQAPGKEREFVATIGWNSGRTFYPDSLKGRFTISRDNARNTLYLQMNNLRPEDTAVYYCAAAKGPLRLSSQADYWGQGTQVTVSSGGGGSGGGGSEVQLVESGGGLVQAGDSLRLSCAASGPTFGMSAMGWFRQAPGKEREFVAAISGLGNPNYSDDVKGRFTISRENGRNTVYLQMNSLKPEDTAVYYCAQRKVYHVQGGDRPQAYDYWGQGTQVTVSSGGGGSGGGGSEVQLVESGGGLVQPGGSLRLSCAATGFTLENKAIGWFRQTPGSEREGVLCISKSGSWTYYTDSMRGRFTISRDNAENTVYLQMDSLKPEDTAVYYCATTTAGGGLCWDGTTFSRLASSWGQGTQVTVSS | 12.8 | 12.8 | 9.1 |  |  | 
11 | MD2306 (bispecific antibody) EVQLVESGGGLVQPGGSLRLSCAVSISIFDIYAMDWYRQAPGKQRDLVATSFRDGSTNYADSVKGRFTISRDNAKNTLYLQMNSLKPEDTAVYLCHVSLYRDPLGVAGGMGVYWGKGALVTVSSGGGGSGGGGSEVQLVESGGGLVQPGGSLRLSCAVSISIFDIYAMDWYRQAPGKQRDLVATSFRDGSTNYADSVKGRFTISRDNAKNTLYLQMNSLKPEDTAVYLCHVSLYRDPLGVAGGMGVYWGKGALVTVSSGGGGSGGGGSEVQLVESGGGLVQPGGSLRLSCAATGFTLENKAIGWFRQTPGSEREGVLCISKSGSWTYYTDSMRGRFTISRDNAENTVYLQMDSLKPEDTAVYYCATTTAGGGLCWDGTTFSRLASSWGQGTQVTVSS | 4.7 | 10.7 | 15.4 | 5.4 | 6.1 | 
12 | MD2301 (bispecific antibody) EVQLVESGGGLVQPGGSLRLSCAATGFTLENKAIGWFRQTPGSEREGVLCISKSGSWTYYTDSMRGRFTISRDNAENTVYLQMDSLKPEDTAVYYCATTTAGGGLCWDGTTFSRLASSWGQGTQVTVSSGGGGSGGGGSEVQLVESGGGLVQPGGSLRLSCAVSISIFDIYAMDWYRQAPGKQRDLVATSFRDGSTNYADSVKGRFTISRDNAKNTLYLQMNSLKPEDTAVYLCHVSLYRDPLGVAGGMGVYWGKGALVTVSSGGGGSGGGGSEVQLVESGGGLVQAGGSLKLSCAASGRTYAMGWFRQAPGKEREFVAHINALGTRTYYSDSVKGRFTISRDNAKNTEYLEMNNLKPEDTAVYYCTAQGQWRAAPVAVAAEYEFWGQGTQVTVSS |  |  |  | 34.7 | 14.7 | average neutralization titer [7]: 412 nM
